From US20240083958A1, “G PROTEIN PEPTIDOMIMETICS” (VRIJE UNIVERSITEIT BRUSSEL, priority 2020, published 2024) come the findings set out here.

Read-outs that look alike come from different tables or passages of the source. Bridge positions count the residues as written; N and C are the ends. Square brackets hold non-standard residues; d marks the D form. Primed or numbered codes have the meaning given here. Azk = residue with azidated side chain, clicked to Pra; Pra′ = residue with alkynyl side chain, clicked to Azk; Lys(N3) = [N-]=[N+]=NCCCC[C@H](N)C(=O)O; R8 = C=CCCCCCC[C@@](C)(N)C(=O)O; Cha = N[C@@H](CC1CCCCC1)C(=O)O; R5 = C=CCCC[C@@](C)(N)C(=O)O; S5 = C=CCCC[C@](C)(N)C(=O)O; Pra = C#CC[C@H](N)C(=O)O

Assay [1] deals with dopamine 1 receptor (D1R) (Homo sapiens, UniProt P21728). The assay can be described thus: GPCR-radioligand binding assay (RLA) with dopamine 1 receptor (D1R), [3H]-SCH23390 as radiolabelled antagonist, A-77636 (agonist), in presence and absence of the peptidomimetic. The settings on record: Table 19; peptidomimetic at 10 μM; ratio IC50 D1R alone / IC50 D1R + peptidomimetic. As to the method: For the radioligand assays on D1R a similar buffer, as for β2AR, was used for the ligands, membrane extracts and peptides (+1% DMSO). The competition assay was performed with [^3H]-SCH23390 as radiolabelled antagonist, at a concentration of 2 nM. A ten-fold dilution series of the agonist, A-77636, was prepared to obtain a dose response curve, starting from 100 μM for the receptor alone and 10 μM in the presence of the peptidomimetics. After incubation, the samples were harvested into filter plates, pre-soaked with 0.5% polyethylenimine (PEI), and washed with ice cold washing buffer using the 96-well harvester. After drying in the oven during 1 h and the addition of scintillation liquid, the plates were placed in the MICROBETA® scintillation counter and incubated for 30 min in the dark before reading.
Sequence of dopamine 1 receptor (D1R) (Homo sapiens, UniProt P21728) (P21728 whole entry): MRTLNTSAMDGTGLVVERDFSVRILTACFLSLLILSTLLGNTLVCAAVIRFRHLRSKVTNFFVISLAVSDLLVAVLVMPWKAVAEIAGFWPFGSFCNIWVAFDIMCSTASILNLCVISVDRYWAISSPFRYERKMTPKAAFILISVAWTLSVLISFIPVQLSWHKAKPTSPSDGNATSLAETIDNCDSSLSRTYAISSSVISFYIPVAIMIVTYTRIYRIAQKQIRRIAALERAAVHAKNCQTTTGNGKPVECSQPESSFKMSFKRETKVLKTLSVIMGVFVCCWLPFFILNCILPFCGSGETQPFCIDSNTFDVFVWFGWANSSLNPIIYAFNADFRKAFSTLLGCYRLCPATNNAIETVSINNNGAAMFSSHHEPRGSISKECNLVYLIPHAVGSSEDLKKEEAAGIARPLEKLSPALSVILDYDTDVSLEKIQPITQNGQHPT
After the Microbeta scintillation counter, the experimental data was further analyzed using Graphpad Prism 6.0. After normalization of the raw data, a nonlinear regression was used to fit the data in a one-site binding model, with the total binding set as 100% and the non-specific binding between 0 and 5%. The IC50 values, obtained from the competition curves, were used to determine the shift for each peptide, which is the ratio of IC50 of the agonist test compound on the basal conformation (e.g. IC50 β2AR with no peptidomimetic) versus the active conformation (e.g. IC50 β2AR+peptidomimetic) of the receptor. For certain peptide analogues, a biphasic binding curve was observed and therefore fitted by a two-site model (nonlinear regression), resulting in two IC50 values (IC50Hi and IC50Lo) and a FractionHi, the fraction of receptors in the active state.
Peptidomimetics were screened using GPCR-radioligand binding assay (RLA) with dopamine 1 receptor (D1R) binding, using [^3H]-SCH23390 as radiolabelled antagonist, and increasing concentrations of A-77636 (agonist). The half maximal inhibitory concentration (IC50) represents the affinity of the agonist for the receptor. The selectivity is quantified by the shift. “[ ]” denotes cyclic peptides.

The target in assay [2] is T1, human β2AR (human, UniProt P07550 2-365). Kind of assay: cell-based or functional assay.
In assay [3] the target is dopamine 1 receptor (D1R) (UniProt P21728 1-446, limits assumed). The assay can be described thus: cell-based or functional assay.
Sequence of dopamine 1 receptor (D1R) (UniProt P21728 1-446, limits assumed) (P21728 whole entry): as above
For assay [4], the target named is T1, human β2AR. Kind of assay: cell-based or functional assay. The source holds these as a separate data set.
The target of assay [5] is T1, human β2AR. The assay can be described thus: cell-based or functional assay. This is another data set of the same source.
Assay [6] has as its target T1, human β2AR. Kind of assay: cell-based or functional assay. The source holds these as a separate data set.
Assay [7] has as its target T1, human β2AR. The assay can be described thus: cell-based or functional assay. The source holds these as a separate data set.
The target in assay [8] is T1, human β2AR. The assay can be described thus: cell-based or functional assay. The source holds these as a separate data set.
In assay [9] the target is T1, human β2AR. Kind of assay: cell-based or functional assay. This is another data set of the same source.
In assay [10] the target is T1, human β2AR. The assay can be described thus: cell-based or functional assay. The source holds these as a separate data set.
In assay [11] the target is T1, human β2AR. Kind of assay: cell-based or functional assay. This is another data set of the same source.
Assay [12] concerns the target T1, human β2AR. The assay can be described thus: cell-based or functional assay. This is another data set of the same source.
For assay [13], the target named is T1, human β2AR. The assay can be described thus: cell-based or functional assay. The source holds these as a separate data set.

Consider “Ac-FNDCRDIIQRMHLRQYEChaL-OH (FNDCRDIIQRMHLRQYEXL; HELM PEPTIDE1{[ac].F.N.D.C.R.D.I.I.Q.R.M.H.L.R.Q.Y.E.[Cha].L}$$$$V2.0; SMILES CC[C@H](C)[C@H](NC(=O)[C@H](CC(=O)O)NC(=O)[C@H](CCCNC(=N)N)NC(=O)[C@H](CS)NC(=O)[C@H](CC(=O)O)NC(=O)[C@H](CC(N)=O)NC(=O)[C@H](Cc1ccccc1)NC(C)=O)C(=O)N[C@H](C(=O)N[C@@H](CCC(N)=O)C(=O)N[C@@H](CCCNC(=N)N)C(=O)N[C@@H](CCSC)C(=O)N[C@@H](Cc1c[nH]cn1)C(=O)N[C@@H](CC(C)C)C(=O)N[C@@H](CCCNC(=N)N)C(=O)N[C@@H](CCC(N)=O)C(=O)N[C@@H](Cc1ccc(O)cc1)C(=O)N[C@@H](CCC(=O)O)C(=O)N[C@@H](CC1CCCCC1)C(=O)N[C@@H](CC(C)C)C(=O)O)[C@@H](C)CC) [compound 63]”, for which the Shift in assay [1] was found to be 24.
On the same count and under the same terms, the same measure for “Ac-KKKFN[PraCRDAzk]IQRMHLRQYELL-OH (Ac-KKKFN[Pra]CRD[Lys(N3)]IQRMHLRQYELL-OH; triazole 6-10) [compound 42]”: 32.

B1: compound 63 (peptide)
peptide: FNDCRDIIQRMHLRQYEXL
HELM: PEPTIDE1{[ac].F.N.D.C.R.D.I.I.Q.R.M.H.L.R.Q.Y.E.[Cha].L}$$$$V2.0
SMILES: CC[C@H](C)[C@H](NC(=O)[C@H](CC(=O)O)NC(=O)[C@H](CCCNC(=N)N)NC(=O)[C@H](CS)NC(=O)[C@H](CC(=O)O)NC(=O)[C@H](CC(N)=O)NC(=O)[C@H](Cc1ccccc1)NC(C)=O)C(=O)N[C@H](C(=O)N[C@@H](CCC(N)=O)C(=O)N[C@@H](CCCNC(=N)N)C(=O)N[C@@H](CCSC)C(=O)N[C@@H](Cc1c[nH]cn1)C(=O)N[C@@H](CC(C)C)C(=O)N[C@@H](CCCNC(=N)N)C(=O)N[C@@H](CCC(N)=O)C(=O)N[C@@H](Cc1ccc(O)cc1)C(=O)N[C@@H](CCC(=O)O)C(=O)N[C@@H](CC1CCCCC1)C(=O)N[C@@H](CC(C)C)C(=O)O)[C@@H](C)CC
As for B1, in the assay with human β2AR [2], the “Shift (averaged)” value was 203. Also, in assay [3], the “IC50 (nM) of A-77636, [3H]-SCH23390 RLA, compound 63 at 10 µM” value was 0.55 nM. In the assay with human β2AR [4], the “IC50 (nM) of isoproterenol, [3H]-DHA RLA, peptidomimetic present” value (“IC50 (nM) … peptidomimetic present” below) amounted to 6.88 nM and the Shift was found to be 118. Moreover, in the assay with human β2AR [5], the “IC50 (nM) … peptidomimetic present” value was 3.96 nM and the Shift turned out to be 198. In the assay with human β2AR [6], the “Fraction HI (%)” value amounted to 81%; the “IC50 (nM) … peptidomimetic present” value turned out to be 7.3 nM; the Shift worked out at 217.

B2: compound 51 (peptide)
peptide: Ac-KKKFN[Pra′]CRD[Azk]IQRMHLRQYE[Cha]L-OH
modifications: triazole 6-10
In the case of B2, in the assay with human β2AR [7], the “IC50 (nM) of isoproterenol, [3H]-DHA RLA, compound 51 at 1 µM” value stood at 56.4 nM; the “IC50 (nM) of isoproterenol, [3H]-DHA RLA, compound 51 at 10 µM” value was determined as 6.7 nM; the “IC50 (nM) of isoproterenol, [3H]-DHA RLA, compound 51 at 50 µM” value came to 6.9 nM; the “IC50 (nM) of isoproterenol, [3H]-DHA RLA, compound 51 at 100 µM” value is 3.4 nM. Also, in the assay with human β2AR [8], the “Fraction HI (%)” value turned out to be 83%; the “IC50 (nM) … peptidomimetic present” value came out at 2.8 nM; the Shift was found to be 580. Moreover, the “Shift (averaged)” value in the assay with human β2AR [2] was 400. Further, the “IC50 (nM) of A-77636, [3H]-SCH23390 RLA, compound 51 at 10 µM” value in assay [3] was determined as 0.25 nM.

B3: compound 14 (peptide)
peptide: Ac-FNDCRD[R8]IQRMHL[S5]QYELL-OH
modifications: staple 7-14
SMILES: CC[C@H](C)[C@@H]1NC(=O)[C@](C)(NC(=O)[C@H](CC(=O)O)NC(=O)[C@H](CCCNC(=N)N)NC(=O)[C@H](CS)NC(=O)[C@H](CC(=O)O)NC(=O)[C@H](CC(N)=O)NC(=O)[C@H](Cc2ccccc2)NC(C)=O)CCCCCCC=CCCC[C@@](C)(C(=O)N[C@@H](CCC(N)=O)C(=O)N[C@@H](Cc2ccc(O)cc2)C(=O)N[C@@H](CCC(=O)O)C(=O)N[C@@H](CC(C)C)C(=O)N[C@@H](CC(C)C)C(=O)O)NC(=O)[C@H](CC(C)C)NC(=O)[C@H](Cc2c[nH]cn2)NC(=O)[C@H](CCSC)NC(=O)[C@H](CCCNC(=N)N)NC(=O)[C@H](CCC(N)=O)NC1=O
Take B3: the “Shift (averaged)” value in the assay with human β2AR [9] was 2. In the assay with human β2AR [10], the “IC50 (nM) … peptidomimetic present” value was found to be 433 nM and the Shift was found to be 2.

B4: compound 8 (peptide)
peptide: Ac-FNDCRD[S5]IQR[S5]HLRQYELL-OH
modifications: staple 7-11
Take B4: the “Shift (averaged)” value in the assay with human β2AR [9] was 3. In the assay with human β2AR [11], the “IC50 (nM) … peptidomimetic present” value worked out at 373 nM and the Shift was 2.

B5: compound 11 (peptide)
peptide: Ac-FNDCRD[Pra′]IQR[Azk]HLRQYELL-OH
modifications: triazole 7-11
For B5, the “Shift (averaged)” value with human β2AR [9] turned out to be 7. Moreover, in the assay with human β2AR [12], the “IC50 (nM) … peptidomimetic present” value stood at 116 nM and the Shift was 7.

B6: compound 13 (peptide)
peptide: Ac-FNDCRDIIQR[R5]HL[S5]QYELL-OH
modifications: staple 11-14
SMILES: CC[C@H](C)[C@H](NC(=O)[C@H](CC(=O)O)NC(=O)[C@H](CCCNC(=N)N)NC(=O)[C@H](CS)NC(=O)[C@H](CC(=O)O)NC(=O)[C@H](CC(N)=O)NC(=O)[C@H](Cc1ccccc1)NC(C)=O)C(=O)N[C@H](C(=O)N[C@@H](CCC(N)=O)C(=O)N[C@@H](CCCNC(=N)N)C(=O)N[C@]1(C)CCCC=CCCC[C@@](C)(C(=O)N[C@@H](CCC(N)=O)C(=O)N[C@@H](Cc2ccc(O)cc2)C(=O)N[C@@H](CCC(=O)O)C(=O)N[C@@H](CC(C)C)C(=O)N[C@@H](CC(C)C)C(=O)O)NC(=O)[C@H](CC(C)C)NC(=O)[C@H](Cc2c[nH]cn2)NC1=O)[C@@H](C)CC
Take B6: in the assay with human β2AR [9], the “Shift (averaged)” value stood at 3. Besides, in the assay with human β2AR [10], the “IC50 (nM) … peptidomimetic present” value is 312 nM and the Shift worked out at 3.

B7: compound 9 (peptide)
peptide: FNDCRDXIQRXHLRQYELL
HELM: PEPTIDE1{[ac].F.N.D.C.R.D.[C#CC[C@H](N[*:1])C(=O)[*:2]].I.Q.R.[[N-]=[N+]=NCCCC[C@H](N[*:1])C(=O)[*:2]].H.L.R.Q.Y.E.L.L}$$$$V2.0
SMILES: C#CC[C@H](NC(=O)[C@H](CC(=O)O)NC(=O)[C@H](CCCNC(=N)N)NC(=O)[C@H](CS)NC(=O)[C@H](CC(=O)O)NC(=O)[C@H](CC(N)=O)NC(=O)[C@H](Cc1ccccc1)NC(C)=O)C(=O)N[C@H](C(=O)N[C@@H](CCC(N)=O)C(=O)N[C@@H](CCCNC(=N)N)C(=O)N[C@@H](CCCCN=[N+]=[N-])C(=O)N[C@@H](Cc1c[nH]cn1)C(=O)N[C@@H](CC(C)C)C(=O)N[C@@H](CCCNC(=N)N)C(=O)N[C@@H](CCC(N)=O)C(=O)N[C@@H](Cc1ccc(O)cc1)C(=O)N[C@@H](CCC(=O)O)C(=O)N[C@@H](CC(C)C)C(=O)N[C@@H](CC(C)C)C(=O)O)[C@@H](C)CC
For B7, the “Shift (averaged)” value in the assay with human β2AR [9] turned out to be 4. Besides, in the assay with human β2AR [12], the “IC50 (nM) … peptidomimetic present” value was found to be 211 nM and the Shift was 4.

B8: compound 10 (peptide)
peptide: H-FNDCRD[Pra′]IQR[Azk]HLRQYELL-OH
modifications: triazole 7-11
As to B8, the “Shift (averaged)” value in the assay with human β2AR [9] is 7. In the assay with human β2AR [12], the “IC50 (nM) … peptidomimetic present” value turned out to be 122 nM and the Shift worked out at 7.

B9: compound 42 (peptide)
peptide: Ac-KKKFN[Pra′]CRD[Azk]IQRMHLRQYELL-OH
modifications: triazole 6-10
Turning to B9, in the assay with human β2AR [13], the “IC50 (nM) … peptidomimetic present” value turned out to be 27.4 nM and the Shift worked out at 42. Also, the “Shift (averaged)” value with human β2AR [2] was 49. Also, the “IC50 (nM) of A-77636, [3H]-SCH23390 RLA, compound 42 at 10 µM” value in [3] was 0.41 nM.
